Test results as given in US20130230533A1 (Regeneron, published 2013).
Changes are numbered by the printed parent chain. Names may count otherwise.

T1: monomeric monkey CD48 expressed with a tag consisting of 2 myc and one 6-His epitopes (monkey)
T1 construct: also called mfCD48-mmH; Monomeric monkey CD48-mmH
T1 chain: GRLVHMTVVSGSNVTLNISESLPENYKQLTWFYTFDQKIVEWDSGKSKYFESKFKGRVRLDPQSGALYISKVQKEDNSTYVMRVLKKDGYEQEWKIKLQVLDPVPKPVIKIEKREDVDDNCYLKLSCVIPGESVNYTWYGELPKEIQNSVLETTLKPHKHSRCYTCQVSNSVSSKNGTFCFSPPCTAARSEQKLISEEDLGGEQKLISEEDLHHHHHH

T2: biotinylated dimeric human CD48 protein expressed as a fusion with mouse IgG2a Fc (human, biotinylated)
T2 construct: also called bio-hCD48-mFc; Dimeric human CD48-mFc
T2 chain: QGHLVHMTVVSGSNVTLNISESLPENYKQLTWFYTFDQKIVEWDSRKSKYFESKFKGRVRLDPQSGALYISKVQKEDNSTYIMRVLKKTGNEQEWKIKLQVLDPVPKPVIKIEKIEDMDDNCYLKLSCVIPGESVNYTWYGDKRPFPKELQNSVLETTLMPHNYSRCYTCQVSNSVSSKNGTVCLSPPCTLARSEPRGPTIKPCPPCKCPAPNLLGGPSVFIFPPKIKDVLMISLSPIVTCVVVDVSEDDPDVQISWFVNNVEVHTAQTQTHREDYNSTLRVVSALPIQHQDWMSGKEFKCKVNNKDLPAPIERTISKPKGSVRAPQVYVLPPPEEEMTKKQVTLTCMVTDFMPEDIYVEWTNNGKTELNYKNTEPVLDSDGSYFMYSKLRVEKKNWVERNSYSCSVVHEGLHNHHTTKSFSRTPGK

T3: human CD48 (on primary human peripheral blood mononuclear cells) (human, UniProt P09326 27-220)
T3 sequence: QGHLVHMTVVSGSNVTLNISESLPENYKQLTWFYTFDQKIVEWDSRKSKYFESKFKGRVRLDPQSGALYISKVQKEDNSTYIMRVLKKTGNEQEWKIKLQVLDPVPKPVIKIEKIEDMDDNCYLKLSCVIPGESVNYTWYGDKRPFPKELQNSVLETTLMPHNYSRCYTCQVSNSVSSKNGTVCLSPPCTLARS

B1: H2M1764N (antibody, mouse IgG2, V domains shown)
VH: QVQLVESGGGVVQPGRSLRLSCAASGFTFSDYGMHWVRQAPGKGLEWVAVIWNDGSNKNYADSVKGRFSISSDSSKNTLYLHMNSLRAEDTAVYYCARSLYSTSPWYFDLWGRGTLVTVSS
VL: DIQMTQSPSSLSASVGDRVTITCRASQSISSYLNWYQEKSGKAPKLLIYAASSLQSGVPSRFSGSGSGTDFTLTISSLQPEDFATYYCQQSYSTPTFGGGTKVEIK
notes: Human variable domains, mouse IgG2 Fc (H2M)
B2: H4H1775P (antibody, human IgG4, V domains shown)
VH: QVQLVESGGGVVQPGRSLRLSCAASGFTFSNYGMHWVRQAPGKGLEWVAVIWYDESGKHYADSVKGRFTISRDNSQNTLYLQMTSLRAEDTAVYYCARDRWTYSHYFEYWGQGTLVTVSS
VL: DIQMTQSPSSVSASVGDRVTITCRASQDISSWVAWYQQKPGKAPKLLIYAASSLQSGVPSRFSGSGSGTDFTLTISSLQPEDFATYYCQQANSFPRTFGQGTKVEIK
notes: Human IgG4 Fc (H4H)
B3: H2M1763N (antibody, mouse IgG2, V domains shown)
VH: QIQLVQSGAEMKRPGTSVKVSCKASGYTFTSYGINWVRQAPGQGLEWMGWISAYNGDTNYAQKLQGRVTMTTDTSTTTAYMEVRSLRSDDTAVYYCARFLTGTKDYYYGMDVWGQGTTVTVSS
VL: DIQMTQSPSSLSASVGDRVTITCQASQDISNFLNWYQQKPGKAPDLLINDASILETGVPSRFSGSGSGTDFTLTINNLQPEDIATYYCQQYDNLPLTFGGGTKVEIK
notes: as for B1
B4: H2M1712N (antibody, mouse IgG2, V domains shown)
VH: B3 VH with T30S, Y106L
VL: B3 VL with N77S
notes: as for B1

What was measured:
[1] = biological target: T1, monomeric monkey CD48 expressed with a …; test: competition ELISA; blocks mfCD48-mmH binding to coated h2B4-hFc
Experimental: (§1) The ability of human anti-CD48 monoclonal antibodies to block human CD48 and monkey CD48 binding to the human cognate ligand, human 2B4, was measured using a competition sandwich ELISA (Table 8). Constant amounts of biotinylated dimeric human CD48 protein expressed as a fusion with mouse IgG2a Fc (“bio-hCD48-mFc” [SEQ ID NO: 387]) or monomeric monkey CD48 expressed with a tag consisting of 2 myc and one 6-His epitopes (“mfCD48-mmH” [SEQ ID NO: 386]) were separately titrated with varying amounts of antibodies. These antibody-protein complexes were incubated (1 hr, 25° C.) before being transferred to microtiter plates coated with a dimeric construct expressing the human 2B4 receptor fused to a either human IgG1 (h2B4-hFc [R&D Systems, Inc., Minneapolis, Minn., Cat. No. 1039-2B]) or mouse IgG2a Fc (h2B4-mFc [SEQ ID NO: 389). After a 1 hr at 25° C. the wells were washed and bound human CD48 was detected with streptavidin conjugated with horse-radish peroxidase (HRP), and monkey CD48 was detected with an HRP conjugated anti-myc polyclonal antibody. The ELISA was developed with a TMB solution to produce a colorimetric reaction and quenched with sulfuric acid before reading absorbance at 450 nm on a Victor X5 plate reader. Sigmoidal dose response curves were fit to the data using Prism™ software. […] (Tables 8 and 9, NB=no binding observed)

[2] = biological target: T2, biotinylated dimeric human CD48 protein …; test: competition ELISA; blocks bio-hCD48-mFc binding to coated h2B4-hFc
Experimental: as §1

[3] = biological target: T2, biotinylated dimeric human CD48 protein …; test: competition ELISA; blocks bio-hCD48-mFc binding to coated h2B4-mFc
Experimental: as §1

[4] = biological target: T3, human CD48 (on primary human peripheral …); test: cell-based or functional assay
[5] = biological target: T3, human CD48 (on primary human peripheral …); test: cell-based or functional assay; remark: listed apart in the source
[6] = biological target: T1, monomeric monkey CD48 expressed with a …; test: competition ELISA; blocks mfCD48-mmH binding to coated h2B4-mFc
Experimental: as §1

[7] = biological target: T3, human CD48 (on primary human peripheral …); test: cell-based or functional assay; remark: listed apart in the source
[8] = biological target: T3, human CD48 (on primary human peripheral …); test: cell-based or functional assay; remark: listed apart in the source

Binder | IC50 [1] [nM] | IC50 [2] [nM] | IC50 [3] [nM] | Inhibition of IFN-gamma Release IC50; Donor 1 [4] [Molar] | Inhibition of IFN-gamma Release IC50; Donor 2 [4] [Molar] | Inhibition of IFN-gamma Release IC50; Donor 3 [4] [Molar] | Inhibition of IFN-gamma Release IC50; Donor 4 [4] [Molar] | Inhibition of IFN-gamma Release IC50; Donor 5 [4] [Molar] | Inhibition of IFN-gamma Release IC50; Donor 6 [5] [Molar] | IC50 [6] [nM] | Inhibition of IFN-gamma Release IC50; Donor 7 [5] [Molar] | further results
B1 | 0.24 | 0.064 | 0.029 | 2.7e-11 | 1.1e-10 | 1.9e-10 | 9.5e-11 | 1.9e-11 | 1e-10 | 0.062 |  | 
B2 |  |  | 0.044 |  |  |  |  |  |  | 0.043 | 5.1e-12 | Inhibition of IFN-gamma Release IC50; Donor 8 [7]: 3.1e-12 Molar; Inhibition of IFN-gamma Release IC50; Donor 9 [7]: 2.3e-12 Molar; Inhibition of IFN-gamma Release IC50; Donor 10 [7]: 2e-11 Molar; % Blockade of IFNγ release, MLR; D1 [8]: 42%; % Blockade of IFNγ release, MLR; D2 [8]: 77%; % Blockade of IFNγ release, MLR; D3 [8]: 87%; % Blockade of IFNγ release, MLR; D4 [8]: 37%; % Blockade of IFNγ release, MLR; D5 [8]: 70%; % Blockade of IFNγ release, MLR; D6 [8]: 72%; % Blockade of IFNγ release, MLR; D7 [8]: 69%; % Blockade of IFNγ release, MLR; D8 [8]: 22%; % Blockade of IFNγ release, MLR; D9 [8]: 60%
B3 | 0.013 | 0.0088 | 0.0055 | 4.9e-11 | 3.4e-11 | 1.3e-10 | 7.5e-11 | 1.9e-11 | 2.6e-11 | 0.0023 | 1.8e-11 | 
B4 | 0.017 | 0.014 |  | 2e-11 | 2.8e-11 | 7.2e-11 | 4.8e-11 | 1.1e-11 |  |  |  | 
